In patent US20210017532A1 (INSTITUTE OF GENETICS AND DEVELOPMENTAL BIOLOGY CHINESE …, published 2021):
Like-named read-outs stand apart in the source and are kept apart here.

Key:
His-UBQ10 [1] = system: His-UBQ10
Flag-OsSPL14, Q7EXZ2 = target: T1, Flag-OsSPL14, Q7EXZ2
T1 chain: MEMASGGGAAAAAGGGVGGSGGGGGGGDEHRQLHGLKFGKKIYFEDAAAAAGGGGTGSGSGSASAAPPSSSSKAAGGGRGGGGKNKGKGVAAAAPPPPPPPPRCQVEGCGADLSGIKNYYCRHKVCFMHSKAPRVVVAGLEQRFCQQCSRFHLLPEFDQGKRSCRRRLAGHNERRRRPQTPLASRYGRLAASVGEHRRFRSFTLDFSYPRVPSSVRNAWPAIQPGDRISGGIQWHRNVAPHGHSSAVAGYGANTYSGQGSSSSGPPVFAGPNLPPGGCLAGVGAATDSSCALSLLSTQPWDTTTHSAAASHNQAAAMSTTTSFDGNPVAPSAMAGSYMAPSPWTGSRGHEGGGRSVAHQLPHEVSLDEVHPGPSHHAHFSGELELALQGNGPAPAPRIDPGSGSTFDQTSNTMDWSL

[2] = target: T2, recombinant GST-OsSPL14 fusion protein, Q7EXZ2
T2 chain: T1 chain

[3] = target: T3, full length OsUBC13 in pGADT7 (rice); assay: yeast two-hybrid (pGBKT7 / pGADT7, strain AH109)
T3 construct: Yeast two-hybrid prey; not shown: fusion partner encoded by vector pGADT7
T3 chain: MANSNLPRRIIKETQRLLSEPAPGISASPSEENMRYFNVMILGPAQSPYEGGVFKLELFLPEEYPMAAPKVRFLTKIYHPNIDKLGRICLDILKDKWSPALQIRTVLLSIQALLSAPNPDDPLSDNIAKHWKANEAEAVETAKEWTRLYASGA
Method: Yeast two-hybrid assays. Yeast two-hybrid assays were performed as described elsewhere^{14, 21}. The full length OsOTUB1.1 cDNA and an OsOTUB1 C-terminal fragment were amplified from ZH11 cDNA and inserted into pGBKT7 (Takara Bio Inc.), while the full length OsUBC13 cDNA and an OsSPL14 C-terminal fragment were inserted into pGADT7 (Takara Bio Inc.). Each of these plasmids was validated by sequencing before being transformed into yeast strain AH109. The required β-galactosidase assays were performed according to the manufacturer's (Takara Bio Inc.) protocol. Cells harboring either an empty pGBKT7 or an empty pGADT7 were used as the negative control. The entire OsOTUB1 sequence or a C-terminal fragment were used as the bait to screen a cDNA library prepared from poly(A)-containing RNA isolated from rice young panicles (<0.2 cm in length). The experimental procedures for screening and plasmid isolation followed the manufacturer's (Takara Bio Inc.) protocol.

His-UBQ10 [4] = target: His-UBQ10; remark: listed apart in the source
[5] = target: T4, N-terminus of YFP-tagged deleted version of OsSPL14 (rice, UniProt Q7EXZ2 1-417); assay: BiFC in rice protoplasts with deleted versions of OsSPL14
T4 construct: not shown: N-terminal fragment of YFP
T4 sequence (looked up): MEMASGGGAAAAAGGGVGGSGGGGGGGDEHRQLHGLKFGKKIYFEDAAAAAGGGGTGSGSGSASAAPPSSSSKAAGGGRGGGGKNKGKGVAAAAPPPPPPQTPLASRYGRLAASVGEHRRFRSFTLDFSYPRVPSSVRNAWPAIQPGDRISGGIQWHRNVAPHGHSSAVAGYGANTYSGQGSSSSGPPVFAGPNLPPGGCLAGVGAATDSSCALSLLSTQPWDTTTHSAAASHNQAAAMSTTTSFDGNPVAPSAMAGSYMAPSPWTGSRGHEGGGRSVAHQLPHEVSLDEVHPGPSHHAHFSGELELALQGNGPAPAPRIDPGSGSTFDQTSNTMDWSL
Excerpt: (a) BiFC assays. The N-terminus of YFP-tagged OsSPL14, SBP-domain or a deleted version of OsSPL14 was co-transformed into rice protoplasts along with the C-terminus of YFP-tagged OsOTUB1.1. Panels (from left to right): DAPI staining, YFP signal, differential interference contrast, merged channel. Scale bar: 10 μm. (b) Co-immunoprecipitation of OsOTUB1.1-GFP and OsSPL14. IB, Immunoblot; IP, immunoprecipitation. (c) Plant morphology. Scale bar: 20 cm. (d) Panicle morphology. Scale bar: 5 cm. (e) OsSPL14 transcript abundance. Transcription relative to the level of the ZH11 plants set to be one. Data shown as mean±s.e.m. (n=3). (f) The number of tillers per plant. (g) The number of grains per panicle. (h) Culm diameter. All phenotypic data were measured from the field-grown plants under normal cultivation conditions. Data in f-h shown as mean±s.e.m. (n=120). The presence of the same lowercase letter denotes a non-significant difference between means (P<0.05).

[6] = target: T5, YFP-fragment-tagged OsUBC13 (BiFC construct) (rice); assay: BiFC in rice protoplasts
T5 construct: BiFC in rice protoplasts; not shown: YFP fragment from pSY-735-35S-cYFP-HA or pSY-736-35S-nYFP-EE
T5 chain: T3 chain

OsSPL14 = target: T6, OsSPL14 (rice, UniProt Q7EXZ2 1-417); assay: summary sentence of Example 1
T6 construct: also called SBP-domain transcription factor OsSPL14
T6 sequence (looked up): T1 chain

OsUBC13 = target: T7, OsUBC13 (rice); assay: summary sentence of Example 1
T7 construct: Used for sentences that name OsUBC13 in general or cover several assay formats; also called E2 ubiquitin-conjugating protein
T7 chain: T3 chain

[7] = target: linear K48-linked tetra-ubiquitin (Boston Biochem)
[8] = target: linear K63-linked tetra-ubiquitin (Boston Biochem)

Molecule: MBP-WTG1^D68E;C71S;H267R
- in vitro deubiquitination assay (cleavage of His-UBQ10, SDS-PAGE and anti-His blot) (His-UBQ10 [1]): MBP-WTG1^wtg1-1, MBP-WTG1^D68E;C71S;H267R and MBP did not cleave His-UBQ10

B1: Myc-OsOTUB1.1 (protein)
chain: MGGDYYHSCCGDPDPDLRAPEGPKLPYVGDKEPLSTLAAEFQSGSPILQEKIKLLGEQYDALRRTRGDGNCFYRSFMFSYLEHILETQDKAEVERILKKIEQCKKTLADLGYIEFTFEDFFSIFIDQLESVLQGHESSIGAEELLERTRDQMVSDYVVMFFRFVTSGEIQRRAEFFEPFISGLTNSTVVQFCKASVEPMGEESDHVHIIALSDALGVPIRVMYLDRSSCDAGNISVNHHDFSPEANSSDGAAAAEKPYITLLYRPGHYDILYPK
- accumulation of Flag-OsSPL14 in rice protoplasts (immunoblot) (Flag-OsSPL14, Q7EXZ2): Myc-OsOTUB1 promoted the degradation of Flag-OsSPL14 only in the presence of either WT-, K63O- or K48R-linked ubiquitins
- ubiquitination of Flag-OsSPL14 in rice protoplasts (anti-Flag IP, anti-HA blot) (Flag-OsSPL14, Q7EXZ2): In the presence of Myc-OsOTUB1.1, the titer of ubiquitinated Flag-OsSPL14 was clearly decreased in the presence of either K48R or K63O mutations, but it remained unaffected by the presence of either K48O or K63R mutations

B2: recombinant His-OsOTUB1 fusion protein (protein)
chain: B1 chain
- degradation of GST-OsSPL14 in young panicle lysates (anti-GST western blot over time) [2]: the degradation of GST-OsSPL14 was accelerated in lysates made from ZH11-npt1 panicles in the presence of His-OsOTUB1

B3: full length OsOTUB1.1 in pGBKT7 (enzyme)
chain: B1 chain
notes: Yeast two-hybrid bait; not shown: fusion partner encoded by vector pGBKT7
- binding result [3]: binds

B4: MBP-WTG1 (protein)
chain: B1 chain
- in vitro deubiquitination assay (cleavage of His-UBQ10, SDS-PAGE and anti-His blot) (His-UBQ10 [4]): MBP-WTG1 was capable of cleaving His-UBQ10

B5: C-terminus of YFP-tagged OsOTUB1.1 (enzyme)
chain: B1 chain
notes: BiFC construct expressed in rice protoplasts; also called cYFP-OsOTUB1; cYFP-OsOTUB1.1; not shown: C-terminal fragment of YFP from vector pSY-735-35S-cYFP-HA
- binding result [5]: no binding
- binding result [6]: binds

B6: OsOTUB1 (enzyme)
chain: B1 chain
notes: Used for sentences that name OsOTUB1 in general or cover several assay formats; also called NPT1; DEP5
- binding result (OsSPL14): binds
- binding result (OsUBC13): binds

B7: recombinant OsOTUB1.1 of the tetra-ubiquitin cleavage assay (protein)
chain: B1 chain
- cleavage of linear Lys48-linked tetra-ubiquitin (western blot, anti-ubiquitin) [7]: it showed a strong cleavage activity when presented with Lys48-linked tetra-ubiquitin
- cleavage of linear Lys63-linked tetra-ubiquitin (western blot, anti-ubiquitin) [8]: it also displayed a moderate level of activity when presented with the Lys63-linked forms
